# How the values were obtained:
# [1] = biological target: T1, rabbit skeletal muscle actin (rabbit, UniProt P68135 1-377); experiment: pyrene-actin polymerisation kinetics
# [2] = biological target: T1, rabbit skeletal muscle actin; experiment: pyrene-actin polymerisation kinetics; remark: listed apart in the source
# [3] = biological target: T1, rabbit skeletal muscle actin; experiment: co-sedimentation
Kd [1] [nM],Kd [2] [nM],Kd [3] [nM],stoichiometry N [3],Binder
10 to 100,~20,100,11 actin subunits per tensin,full-length epitope-tagged recombinant chick cardiac muscle tensin (natural protein) MDFGSVMNQAATPCSPAVNYELPSPGQSITKQVDTPDATRSPRGGQAHRKASRSMSVTAAMESSCELDLVYITERIIAVSYPSTAEEQSFRSNLREVAHMLKSKHGDNYVLFNLSERRHDISKLHPKVLDFGWPDLHTPALEKICSICKAMDTWLNAAAHNVVVLHNKGNRGRLGVVVAAYMHYSNISASADQALDRFAMKRFYEDKVVPVGQPSQKRYIHYFSGLLSGSIKMNNKPLFLHHVIMHGIPNFESKGGCRPFLKIYQAMQPVYTSGIYNVQGDSQTGICITIEPGLLLKGDILLKCYHKKFRSPTRDVIFRVQFHTCAVHDLDIVFGKEDLDEAFRDERFPEYGKVEFVFSYGPEKIQGMEHLENGPSVSVDYNTSDPLIRWDSYENFNIQREDSTEGTWAEPALPGKHLEKEVGHTQGPLDGSLYAKVKKKDSLHGSIGAVNAARLPLSAAPNHVEHTLSVSSDSGNSTASTKTDRTDEPGAPGAPTGHAVLSPEEKRELDRLLVGFGLESAPPMHNHAPGPAPARLPAGPGRHVVPAQVHVNGAGTPLLAERETDILDDELPNQDGHSVGSLGTLSSLDGTTTASEAGFHEAPRVGSLSSLPNGPASYNGAEKMLKEGLYEAEPLSNGAYPYSNQNTLMGHHLRDPLAHLRPSASAQEHLAGYPQRQPASTSPAWLQPPVPQPYLYGYDLPSAHRSQSFPAVGTAKYEANLALPQAPARSTSSREAVQRGLNSWQQQGGSRPPSQLHDGGLESHSPSLSSCSPQPSPLQPMPPHSHSMPEFPRAPSRREIEQSIEALDVLMLDLAPSVHKSQSVPSAATRQDKPAAMLSSLSAQPLSGHYAQPTPQVVQPRSFGTSVGTDPLAKAYSPGPLVPAARSTAEPDYTVHEYRETYTPYSYQPVPEPRSYGSAPASILPLSASYSPAGSQQLLVSSPPSPTAPAQSQLPHKGLESYEDLSRSGEEPLNLEGLVAHRVAGVQSREKSPEESTVPARRRTPSDSHYEKSSPEPGSPRSPTVLSPEVVSTIAANPGGRPKEPHLHSYKEAFEEMESASPSSLTSGGVRSPPGLAKTPLSALGLKPHNPADILLHPVGELEGEAGADSEEEPRSYVESVARTATTGRAGNLPAAQPVGLEVPARNGAFGNSFTVPSPVSTSSPIHSVDGASLRSYPSEGSPHGTVTPPHAVAETAYRSPMVSQTPSAHSSYQTSSPSSFQAGTLGSPYASPDYPDGRAGFQPDPQARQQPQVSVVGVHALPGSPRTLHRTVATNTPPSPGFGRRAANPAVASVPGSPGLGRHTVSPHAPPGSPSLARHQMAAVPPGSPMYGYSSPEERRPTLSRQSSASGYQPPSTPSFPVSPAYYPGTSTPHSSSPDSAAYRQGSPTPQPALPEKRRMSAGERSNSLPNYATVNGKASSPLSSGMSSPSSGSAVAFSHTLPDFSKFSMPDISPETRANVKFVQDTSKYWYKPDISREQAIALLKDREPGAFIIRDSHSFRGAYGLAMKVASPPPTVMQQNKKGDITNELVRHFLIETSPRGVKLKGCPNEPNFGCLSALVYQHSIMPLALPCKLVIPDRDPMEEKKDAASTTNSATDLLKQGAACNVLFINSVEMESLTGPQAISKAVAETLVADPTPTATIVHFKVSAQGITLTDNQRKLFFRRHYPLNTVTFCDLDPQERKWTKTDGSGPAKLFGFVARKQGSTTDNVCHLFAELDPDQPAAAIVNFVSRVMLGSGQKR
,,,2 to 4 actin subunits per tensin fragment,GST-tensin p29(1-263) (domain or fragment) MDFGSVMNQAATPCSPAVNYELPSPGQSITKQVDTPDATRSPRGGQAHRKASRSMSVTAAMESSCELDLVYITERIIAVSYPSTAEEQSFRSNLREVAHMLKSKHGDNYVLFNLSERRHDISKLHPKVLDFGWPDLHTPALEKICSICKAMDTWLNAAAHNVVVLHNKGNRGRLGVVVAAYMHYSNISASADQALDRFAMKRFYEDKVVPVGQPSQKRYIHYFSGLLSGSIKMNNKPLFLHHVIMHGIPNFESKGGCRPFLKI

# Reference: paper PMC2120063 (The Journal of Cell Biology, 1994)
